From patent US20060172386A1 come the findings set out here.

Assay [1] addresses recombinant extracellular domain of FGFR-3c. The assay is described as follows: SPR (BIACORE 2000), FGF-20 fixed on CM5 chip, receptor extracellular domain as analyte. (In general: SPR reads the build-up and loss of mass on a sensor chip optically.)
The target in assay [2] is recombinant extracellular domain of FGFR-2c. Described as above.

One may read the Kd as the equilibrium constant for the complex coming apart. For orientation: koff means the first-order rate constant of dissociation. By kon is commonly meant a measure of how fast the partners come together. As for “Recombinant FGF-20 (from UniProt Q9EST9 1-212) (ligand)”, in assay [1], the Kd stood at 217 nM, the koff is 0.0247 s⁻¹ and the on-rate constant (kon) stood at 115000 M⁻¹ s⁻¹. Besides, in assay [2], the Kd worked out at 28.1 nM, the koff is 0.0167 s⁻¹ and the kon was determined as 595000 M⁻¹ s⁻¹.
